# According to PMC4714889, “Dissecting the Molecular Mechanism of Nucleotide-Dependent Activation of the KtrAB K^+ Transporter” (PLoS Biology, 2016):
# B1: KtrAΔC, C-terminal domain truncated KtrA (tandem of two N-terminal KtrA domains) (domain or fragment, Bacillus subtilis)
# chain: MGRIKNKQFAVIGLGRFGGSICKELHRMGHEVLAVDINEEKVNAYASYATHAVIANATEENELLSLGIRNFEYVIVAIGANIQASTLTTLLLKELDIPNIWVKAQNYYHHKVLEKIGADRIIHPEKDMGVKIAQSLSDENVLNYLEGSKQFAVIGLGRFGGSICKELHRMGHEVLAVDINEEKVNAYASYATHAVIANATEENELLSLGIRNFEYVIVAIGANIQASTLTTLLLKELDIPNIWVKAQNYYHHKVLEKIGADRIIHPEKDMGVKIAQSLSDENVLNY
# notes: KtrA N-terminal domain, Bacillus subtilis, GenBank KIX81590.1, residues 1-144 (first copy of the tandem); linker between the two N-terminal domains; KtrA N-terminal domain, Bacillus subtilis, GenBank KIX81590.1, residues 7-144 (second copy of the tandem); Lacks KtrA residues 145-222 (the whole C-terminal domain); Forms an octameric ring counted in N-terminal domains; each chain carries two of …
# B2: KtrB (wild type), membrane protein of the KtrAB K+ transporter from Bacillus subtilis (natural protein)
# chain: MTLQKDKVIKWVRFTPPQVLAIGFFLTIIIGAVLLMLPISTTKPLSWIDALFTAASATTVTGLAVVDTGTQFTVFGQTVIMGLIQIGGLGFMTFAVLIVMILGKKIGLKERMLVQEALNQPTIGGVIGLVKVLFLFSISIELIAALILSIRLVPQYGWSSGLFASLFHAISAFNNAGFSLWPDNLMSYVGDPTVNLVITFLFITGGIGFTVLFDVMKNRRFKTFSLHTKLMLTGTLMLNAIAMLTVFILEYSNPGTLGHLHIVDKLWASYFQAVTPRTAGFNSLDFGSMREGTIVFTLLLMFIGAGSASTASGIKLTTFIVILTSVIAYLRGKKETVIFRRSIKYPIIIKALAVSVTSLFIVFLGIFALTITEQAPFLQIVFETFSAFGTVGLTMGLTPELTTAGKCIIIVIMFIGRIGPLTFVFSFAKTEQSNIRYPDGEVFTG
# notes: KtrB, membrane protein of the KtrAB K+ transporter, Bacillus subtilis, GenBank KIX81591.1; In detergent (DDM or cymal-6), or reconstituted in E. coli polar lipid liposomes for the float-up; also called KtrB wt; wild-type KtrB; source: E. coli BL21(DE3), purified (DDM extraction, Talon resin, thrombin, Superdex-200); not shown: His tag, N-terminal, cleaved
# B3: KtrA (wild type), cytosolic RCK ring protein of the KtrAB K+ transporter from Bacillus subtilis (natural protein, UniProt O32080 1-222, looked up)
# chain: MGRIKNKQFAVIGLGRFGGSICKELHRMGHEVLAVDINEEKVNAYASYATHAVIANATEENELLSLGIRNFEYVIVAIGANIQASTLTTLLLKELDIPNIWVKAQNYYHHKVLEKIGADRIIHPEKDMGVKIAQSLSDENVLNYIDLSDEYSIVELLATRKLDSKSIIDLNVRAKYGCTILAIKHHGDICLSPAPEDIIREQDCLVIMGHKKDIKRFENEGM
# notes: KtrA, RCK domain protein of the KtrAB K+ transporter, Bacillus subtilis, GenBank KIX81590.1; eluted and kept with ADP or ATP; also called full-length KtrA; wild type KtrA; source: E. coli BL21(DE3), purified (anion exchange, ADP-agarose, Superdex-S200)
# Legend:
# [1] = biological target: B2; assay: SEC; size-exclusion purified KtrB (wild type or mutant) mixed with an excess of KtrA (wild type, KtrAC0 or KtrAΔC), run in the presence of ATP or ADP, in detergent; SDS-PAGE of the fractions; details: both partners purified
# [2] = biological target: the molecule itself; assay: crystal structure; KtrAΔCB with bound ADP, data to 6 Å, molecular replacement, 4-fold and 8-fold averaging, DEN refinement; crystals from 100 mM Tris-HCl pH 8.5, 18%–22% PEG400, 100–200 mM CaCl2, 20°C
# [3] = biological target: the molecule itself; assay: crystal structure; wild-type KtrAB with ADP, 8 Å diffraction dataset; molecular replacement searches and an averaged map only (low resolution model); crystals from 100 mM Hepes pH 7.5, 1 M NaCl, 10% PEG4000, 20°C
binding result [1],Binder,binding result [2],stoichiometry N [2],binding result [3]
binds,B1,binds,–,–
–,B2,–,2,–
binds,B3,–,–,binds
